# Measured values published in paper PMC3954559.
# B1: mouse Fc receptor (FcR gamma I) (receptor)
# chain: EVVNATKAVITLQPPWVSIFQKENVTLWCEGPHLPGDSSTQWFINGTAVQISTPSYSIPEASFQDSGEYRCQIGSSMPSDPVQLQIHNDWLLLQASRRVLTEGEPLALRCHGWKNKLVYNVVFYRNGKSFQFSSDSEVAILKTNLSHSGIYHCSGTGRHRYTSAGVSITVKELFTTPVLRASVSSPFPEGSLVTLNCETNLLLQRPGLQLHFSFYVGSKILEYRNTSSEYHIARAEREDAGFYWCEVATEDSSVLKRSPELELQVLGPQSSAPVWFHILFYLSVGIMFSLNTVLYVKIHRLQREKKYNLEVPLVSEQGKKANSFQQVRSDGVYEEVTATASQTTPKEAPDGPRSSVGDCGPEQPEPLPPSDSTGAQTSQS
# Assays:
# [1] = target: partially deglycosylated Fc (mouse IgG3 Fc domain treated with a mixture of endoglycosidases) (mouse); assay: SPR
# [2] = target: commercial immunoglobulin containing Fc; assay: SPR
binder,measurement,setting,value
B1,Kd,[1],1330 nM
same,Kd,[2],384 nM
